The assay concerns the target recombinant adeno-associated virus-6 vector particle (rAAV6 capsid) (adeno-associated virus 6). In words: co-sedimentation.

Experimental findings from paper PMC4362353 are described below.

B1: secreted human Galectin 3-binding protein from HEK293 culture medium (natural protein)
chain: VNDGDMRLADGGATNQGRVEIFYRGQWGTVCDNLWDLTDASVVCRALGFENATQALGRAAFGQGSGPIMLDEVQCTGTEASLADCKSLGWLKSNCRHERDAGVVCTNETRSTHTLDLSRELSEALGQIFDSQRGCDLSISVNVQGEDALGFCGHTVILTANLEAQALWKEPGSNVTMSVDAECVPMVRDLLRYFYSRRIDITLSSVKCFHKLASAYGARQLQGYCASLFAILLPQDPSFQMPLDLYAYAVATGDALLEKLCLQFLAWNFEALTQAEAWPSVPTDLLQLLLPRSDLAVPSELALLKAVDTWSWGERASHEEVEGLVEKIRFPMMLPEELFELQFNLSLYWSHEALFQKKTLQALEFHTVPFQLLARYKGLNLTEDTYKPRIYTSPTWSAFVTDSSWSARKSQLVYQSRRGPLVKYSSDYFQAPSDYRYYPYQSFQTPQHPSFLFQDKRVSWSLVYLPTIQSCWNYGFSCSSDELPVLGLTKSGGSDRTIAYENKALMLCEGLFVADVTDFEGWKAAIPSALDTNSSKSTSSFPCPAGHFNGFRTVIRPFYLTNSSGVD
For B1, the percent of rAAV6 in the pellet fraction (2,000 g, 10 minutes) worked out at 70% and the percent of rAAV6 in the precipitate (10,000 g, 30 minutes) stood at 90%.
